Consider two molecules from PMC9605875 (Cell Host & Microbe, 2022).

The target of the test is Wild-type RABV-G, untagged, full length, on transfected Expi293 cells (Rabies virus, Pasteur (PV) ectodomain; …, UniProt P08667, strain). The test can be described thus: flow cytometry on cells. To be noted: one partner purified.

B1: 17C7 IgG (antibody, V domains shown)
VH: EVQLVESGGGVVQPGRSLRLSCAASGFTFSTYAMHWVRQAPGKGLEWVAVVSYDGRTKDYADSVKGRFTISRDNSKNTLYLQMNSLRTEDTAVYFCARERFSGAYFDYWGQGTLVTVSS
VL: EIVLTQSPATLSLSPGERATLSCRASQSVSSYLAWYQQKPGQAPRLLIYDASNRATGIPARFSGSGSGTDFTLTISSLEPEDFAVYSCQQRNNWPPTFGGGTKVEIK
notes: IgG1; copies: 2 + 2
For the molecule B1, the binding result is on record as “binds”.

B2: 1112-1 IgG (antibody, V domains shown)
VH: QVQLQQPGAELLKPGTSMKLSCKASGYTFSNYWMHWVKLRPGQGFEWIGEINPFNGGTNFNEKFKSKATLTVDRSSSTAYMQLSSVTSEDSAVYYCTIPLSDYGDWFFAVWGAGTTVTVSS
VL: DIVMTQSHKFMSTSIGDRVSITCKASQDVSTAVAWYRQKPGQSPKLLIYSASYRSTGVPDRFTGSGSGTDFTFTISSVQAEDLAVFYCQQHYSAPLTFGAGTKLELK
notes: copies: 2 + 2
As to B2, the binding result is on record as “binds”.
